Assays:
[1] = biological target: CD70 on cells (CHO-CD70, JVM-3, U266, Raji, THP-1, T cells) (human) (UniProt P32970); test: on JVM-3 cells
[2] = biological target: CD70 on cells (CHO-CD70, JVM-3, U266, Raji, THP-1, T cells) (human) (UniProt P32970); test: on U266 cells
[3] = biological target: CD70 on cells (CHO-CD70, JVM-3, U266, Raji, THP-1, T cells) (human) (UniProt P32970); test: on Raji cells

Sequence of CD70 on cells (CHO-CD70, JVM-3, U266, Raji, THP-1, T cells) (human) (P32970 whole entry): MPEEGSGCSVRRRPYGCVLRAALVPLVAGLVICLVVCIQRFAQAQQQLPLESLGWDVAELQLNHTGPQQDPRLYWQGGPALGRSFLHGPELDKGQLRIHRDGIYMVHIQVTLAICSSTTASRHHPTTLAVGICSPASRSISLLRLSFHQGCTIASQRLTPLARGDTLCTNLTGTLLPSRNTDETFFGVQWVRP

cell binding [1]: 225000 | cell binding [2]: 239000 | cell binding [3]: 68900
Substance: 1F6 (clone ID in Table 3, alloy mouse hybridoma) (antibody)

— patent publication US20240252641A1
